# Source: FireProtDB (doi:10.1016/0003-9861(92)90047-z)
# Conditions: Escherichia coli (strain K12); pH 7.2; Thermal; DSC; Sodium phosphate 1 mM; reversible: yes; whole UniProt chain shown
protein,measurement,value
"Tryptophan synthase alpha chain wild type, P0A877 (protein) MERYESLFAQLKERKEGAFVPFVTLGDPGIEQSLKIIDTLIEAGADALELGIPFSDPLADGPTIQNATLRAFAAGVTPAQCFEMLALIRQKHPTIPIGLLMYANLVFNKGIDEFYAQCEKVGVDSVLVADVPVEESAPFRQAALRHNVAPIFICPPNADDDLLRQIASYGRGYTYLLSRAGVTGAENRAALPLNHLVAKLKEYNAAPPLQGFGISAPDQVKAAIDAGAAGAISGSAIVKIIEQHINEPEKMLAALKVFVQPMKAATRS",Tm,59.5 °C
